Measured values taken from the supplement of paper PMC7877785.
± gives the uncertainty stated by the source.

Experiment: self-splicing fitness, log relative to wild type (ln ratio); higher = more splicing; Tetrahymena group I intron in knt gene, E. coli kanamycin selection, DiMSum; sequences stand for … in CUCUCU…GGAGGGAAAAGUUAUCAGGCAUGCACCUGGUAGCUAGUCUUUAAACCAAUAGAUUGCAUCGGUUUAAAAGGCAAGACCGUCAAAUUGCGGGAAAGGGGUCAACAGCCGUUCAGUACCAAGUCUCAGGGGAAACUUUGAGAUGGCCUUGCAAAGGGUAUGGUAAUAAGCUGACGGACAUGGUCCUAACCACGCAGCCAAGUCCUAAGUCAACAGAUCUUCUGUUGAUAUGGAUGCAGUUCACAGACUAAAUGUCGGUCGGGGAAGAUGUAUUCUUCUCAUAAGAUAUAGUCGGACCUCUCCUUAAUGGGAGCUAGCGGAUGAAGUGAUGCAACACUGGAGCCGCUGGGAACUAAUUUGUAUGCGAAAGUAUAUUGAUUAGUUUUGGAGUACUCGUGGUCG
Method in brief: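 Six replicate transformations of E. coli BL21(DE3) with a pET-22b(+) library were grown overnight at 37°C or 30°C. The library randomised all eight P1ex-region intron nucleotides, the intron lying in the knt kanamycin-resistance gene, and plates were LB agar with or without 25 μg/mL kanamycin plus 100 μg/mL carbenicillin, 50 μM IPTG and 0.2% rhamnose. Pooled colonies were amplicon-sequenced on an Illumina HiSeq 2500, and fitness is the DiMSum error-weighted combination of wild-type-normalised replicate fold changes, kanamycin versus none.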

Row | Sequence | self-splicing fitness (ln) (30 °C) | self-splicing fitness (ln) (37 °C)
1 | CAAUAGCAAUAUUACGAAUG | -1.11 ± 0.076 | -0.357 ± 0.098
2 | CAAUAGCAAUAUUACGAGCU | -4.39 ± 0.42 | -3.5 ± 0.42
3 | CAAUAGCAAUAUUACGAUAA | -3.24 ± 0.48 | -3.1 ± 0.33
4 | CAAUAGCAAUAUUACGCAAA | -3.95 ± 0.3 | -2.6 ± 0.27
5 | CAAUAGCAAUAUUACGCAUU | -4.62 ± 0.24 | -2.71 ± 0.17
6 | CAAUAGCAAUAUUACGCGAC | -2.2 ± 0.17 | -2.54 ± 0.38
7 | CAAUAGCAAUAUUACGCUCC | – | -0.581 ± 0.39
8 | CAAUAGCAAUAUUACGCUUC | -4.65 ± 0.36 | -2.95 ± 0.35
9 | CAAUAGCAAUAUUACGGAUG | -1.51 ± 0.08 | -1.12 ± 0.088
10 | CAAUAGCAAUAUUACGGCAU | -3.03 ± 0.17 | -1.32 ± 0.26
11 | CAAUAGCAAUAUUACGGCGA | -3.93 ± 0.4 | -2.03 ± 0.24
12 | CAAUAGCAAUAUUACGGGAC | -2.83 ± 0.34 | -2.63 ± 0.27
13 | CAAUAGCAAUAUUACGGGUA | -3.9 ± 0.21 | -3.12 ± 0.18
14 | CAAUAGCAAUAUUACGGUCG | -0.0402 ± 0.066 | 0.0285 ± 0.087
15 | CAAUAGCAAUAUUACGGUCU | -3.24 ± 0.31 | -3.15 ± 0.35
16 | CAAUAGCAAUAUUACGGUGU | -3.14 ± 0.16 | -2.27 ± 0.18
17 | CAAUAGCAAUAUUACGUAGA | -3.48 ± 0.16 | -2.37 ± 0.17
18 | CAAUAGCAAUAUUACGUAGU | -3.31 ± 0.29 | -2.44 ± 0.22
19 | CAAUAGCAAUAUUACGUGAA | -4.02 ± 0.37 | -1.7 ± 0.22
20 | CAAUAGCAAUAUUACGUGCU | – | -2.65 ± 0.24
21 | CAAUAGCAAUAUUACGUUAC | – | -3.23 ± 0.39
22 | CAAUAGCAAUAUUACGUUGG | -1.9 ± 0.099 | -1.3 ± 0.11
23 | CACAAGCAAUAUUACGAAGG | -1.45 ± 0.096 | -0.993 ± 0.12
24 | CACAAGCAAUAUUACGAAUG | -1.79 ± 0.074 | -1.2 ± 0.073
25 | CACAAGCAAUAUUACGACCU | -1.71 ± 0.19 | -2.1 ± 0.2

Row | Sequence | self-splicing fitness (ln) (30 °C) | self-splicing fitness (ln) (37 °C)
26 | CACAAGCAAUAUUACGCCCA | -0.966 ± 0.091 | 0.114 ± 0.09
27 | CACAAGCAAUAUUACGCGUA | -1.64 ± 0.072 | -0.625 ± 0.067
28 | CACAAGCAAUAUUACGGAAG | -0.736 ± 0.055 | -0.887 ± 0.072
29 | CACAAGCAAUAUUACGGGCA | -3.05 ± 0.14 | -1.39 ± 0.099
30 | CACAAGCAAUAUUACGGUCC | -2.99 ± 0.32 | -1.99 ± 0.27
31 | CACAAGCAAUAUUACGUAAC | -2.43 ± 0.095 | -0.662 ± 0.14
32 | CACAAGCAAUAUUACGUACC | -3.9 ± 0.21 | -1.36 ± 0.14
33 | CACAAGCAAUAUUACGUCGG | -0.785 ± 0.05 | -0.422 ± 0.063
34 | CACAAGCAAUAUUACGUUCU | -2.84 ± 0.12 | -2.42 ± 0.12
35 | CACAAGCAAUAUUACGUUGU | -3.81 ± 0.16 | -2.39 ± 0.13
36 | CACCAGCAAUAUUACGAAAG | -0.231 ± 0.041 | -0.141 ± 0.064
37 | CACCAGCAAUAUUACGAAAU | -4.11 ± 0.18 | -2.29 ± 0.16
38 | CACCAGCAAUAUUACGAACU | -3.98 ± 0.2 | -2.05 ± 0.17
39 | CACCAGCAAUAUUACGAGCA | -3.54 ± 0.16 | -1.55 ± 0.13
40 | CACCAGCAAUAUUACGAUCA | -2.75 ± 0.15 | -1.43 ± 0.16
41 | CACCAGCAAUAUUACGAUCG | -0.326 ± 0.059 | 0.608 ± 0.085
42 | CACCAGCAAUAUUACGCAUA | -2.57 ± 0.12 | -1.27 ± 0.1
43 | CACCAGCAAUAUUACGCCAU | -3.39 ± 0.31 | -2.03 ± 0.29
44 | CACCAGCAAUAUUACGCCGC | -3.35 ± 0.2 | -2.43 ± 0.29
45 | CACCAGCAAUAUUACGCUCC | -3.91 ± 0.21 | -2.11 ± 0.33
46 | CACCAGCAAUAUUACGGCCG | 0.194 ± 0.066 | 0.251 ± 0.087
47 | CACCAGCAAUAUUACGGGGA | -1.7 ± 0.062 | -0.764 ± 0.067
48 | CACCAGCAAUAUUACGGGUU | -1.82 ± 0.056 | -1.68 ± 0.081
49 | CACCAGCAAUAUUACGGUAA | -1.18 ± 0.056 | -0.566 ± 0.061
50 | CACCAGCAAUAUUACGGUAU | -2.42 ± 0.072 | -1.03 ± 0.067

Row | Sequence | self-splicing fitness (ln) (30 °C) | self-splicing fitness (ln) (37 °C)
51 | CACCAGCAAUAUUACGGUUG | -2.85 ± 0.094 | -1.04 ± 0.11
52 | CACCAGCAAUAUUACGUACG | 0.0448 ± 0.04 | 0.848 ± 0.062
53 | CACCAGCAAUAUUACGUCAU | -4.12 ± 0.17 | -2.27 ± 0.14
54 | CACCAGCAAUAUUACGUCCU | -3.31 ± 0.13 | -1.87 ± 0.14
55 | CACCAGCAAUAUUACGUUGC | -3.93 ± 0.17 | -3.5 ± 0.24
56 | CACGAGCAAUAUUACGAACA | – | -2.04 ± 0.47
57 | CACGAGCAAUAUUACGAAUA | -2.08 ± 0.12 | -2.23 ± 0.16
58 | CACGAGCAAUAUUACGACUU | -4.4 ± 0.34 | -0.766 ± 0.13
59 | CACGAGCAAUAUUACGAGUU | -4.28 ± 0.18 | -2.2 ± 0.12
60 | CACGAGCAAUAUUACGAUGG | -1.81 ± 0.096 | -1.45 ± 0.14
61 | CACGAGCAAUAUUACGCAGA | – | -2.28 ± 0.26
62 | CACGAGCAAUAUUACGCCGG | -3.41 ± 0.22 | -2.6 ± 0.3
63 | CACGAGCAAUAUUACGCCUA | – | -2.24 ± 0.45
64 | CACGAGCAAUAUUACGCGCA | -3.24 ± 0.18 | -2.52 ± 0.14
65 | CACGAGCAAUAUUACGGAUA | -2.98 ± 0.27 | -2.06 ± 0.24
66 | CACGAGCAAUAUUACGGCAG | -1.03 ± 0.11 | -0.837 ± 0.14
67 | CACGAGCAAUAUUACGGCCA | – | -2.79 ± 0.32
68 | CACGAGCAAUAUUACGGCGU | -2.68 ± 0.21 | -2.53 ± 0.26
69 | CACGAGCAAUAUUACGGCUA | -2.19 ± 0.22 | -1.41 ± 0.17
70 | CACGAGCAAUAUUACGGGAG | -3.53 ± 0.21 | -2.37 ± 0.18
71 | CACGAGCAAUAUUACGGGGA | -3.15 ± 0.12 | -2.51 ± 0.13
72 | CACGAGCAAUAUUACGGUAU | -3.04 ± 0.23 | -2.25 ± 0.22
73 | CACGAGCAAUAUUACGGUCC | -4.36 ± 0.28 | -3.16 ± 0.33
74 | CACGAGCAAUAUUACGGUGU | -3.93 ± 0.22 | -2.33 ± 0.21
75 | CACGAGCAAUAUUACGGUUA | -2.76 ± 0.17 | -2.48 ± 0.16

Row | Sequence | self-splicing fitness (ln) (30 °C) | self-splicing fitness (ln) (37 °C)
76 | CACGAGCAAUAUUACGUCCC | -1.45 ± 0.25 | –
77 | CACGAGCAAUAUUACGUCGC | -2.82 ± 0.33 | -2.69 ± 0.41
78 | CACGAGCAAUAUUACGUGCU | -2.25 ± 0.12 | -2.99 ± 0.22
79 | CACGAGCAAUAUUACGUGUU | -2.98 ± 0.1 | -2.26 ± 0.15
80 | CACGAGCAAUAUUACGUUGA | -3.06 ± 0.17 | -2.47 ± 0.18
81 | CACGAGCAAUAUUACGUUUA | -2.88 ± 0.18 | -2.52 ± 0.19
82 | CACGAGCAAUAUUACGUUUC | -3.42 ± 0.17 | -2.42 ± 0.22
83 | CACGAGCAAUAUUACGUUUU | -3.49 ± 0.15 | -2.94 ± 0.18
84 | CACUAGCAAUAUUACGAACU | -2.65 ± 0.1 | -1.99 ± 0.15
85 | CACUAGCAAUAUUACGACUA | -2.82 ± 0.23 | -1.43 ± 0.2
86 | CACUAGCAAUAUUACGAGUG | -3.45 ± 0.2 | -2.73 ± 0.22
87 | CACUAGCAAUAUUACGAUUC | -3.02 ± 0.23 | -1.14 ± 0.26
88 | CACUAGCAAUAUUACGCAUG | -1.95 ± 0.13 | -1.75 ± 0.21
89 | CACUAGCAAUAUUACGCUCG | -0.657 ± 0.073 | 0.214 ± 0.089
90 | CACUAGCAAUAUUACGGAAG | -0.706 ± 0.088 | -0.266 ± 0.097
91 | CACUAGCAAUAUUACGGAUA | -2.41 ± 0.28 | -2.22 ± 0.28
92 | CACUAGCAAUAUUACGGCAC | -2.4 ± 0.11 | -1.53 ± 0.18
93 | CACUAGCAAUAUUACGGGGG | -2.43 ± 0.18 | -1.5 ± 0.17
94 | CACUAGCAAUAUUACGGGGU | -3.32 ± 0.19 | -2.37 ± 0.2
95 | CACUAGCAAUAUUACGUGCA | -2.44 ± 0.17 | -1.99 ± 0.23
96 | CACUAGCAAUAUUACGUGCG | -2.13 ± 0.081 | -0.945 ± 0.082
97 | CACUAGCAAUAUUACGUUCU | -3.24 ± 0.17 | -1.39 ± 0.14
98 | CAGAAGCAAUAUUACGACCA | -0.857 ± 0.24 | –
